Experimental data taken from US20180362645A1.

Target: human pituitary adenylate cyclase-activating polypeptide type I receptor (human) (UniProt P41586)
Assay: cell-based or functional assay

Chain of human pituitary adenylate cyclase-activating polypeptide type I receptor (human) (P41586 21-468): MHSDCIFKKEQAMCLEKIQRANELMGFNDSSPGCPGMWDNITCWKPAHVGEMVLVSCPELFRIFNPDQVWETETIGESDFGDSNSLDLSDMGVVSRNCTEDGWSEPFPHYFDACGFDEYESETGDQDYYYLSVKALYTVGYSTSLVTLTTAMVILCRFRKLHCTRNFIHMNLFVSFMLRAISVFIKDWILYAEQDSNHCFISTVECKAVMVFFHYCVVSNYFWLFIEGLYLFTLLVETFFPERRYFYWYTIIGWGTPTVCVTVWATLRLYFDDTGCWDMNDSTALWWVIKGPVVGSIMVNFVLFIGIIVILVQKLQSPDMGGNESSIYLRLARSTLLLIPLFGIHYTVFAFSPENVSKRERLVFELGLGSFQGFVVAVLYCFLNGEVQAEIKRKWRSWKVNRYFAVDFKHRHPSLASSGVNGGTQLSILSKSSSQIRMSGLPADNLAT

PAC1 EC50 (agonist activity): 2.3 nM
Binder: HSDAVFTDNYTRLRKQMAVKKYLNSILN (ligand, UniProt P01282 125-152, looked up) [VIP]
